Among the data in US20240066061A1 are chemokine concentration, chemotactic index, in-vitro transwell migration of human T cells and fold enrichment of CXCR3+ cells after 21 days stimulation with CMV epitopes and CXCL11 values, retold here.

This experiment has as its target chemokine receptor CXCR3 (human) (UniProt P49682). Put plainly: cell-based or functional assay.
Chain of UniProt P49682 (P49682 whole entry): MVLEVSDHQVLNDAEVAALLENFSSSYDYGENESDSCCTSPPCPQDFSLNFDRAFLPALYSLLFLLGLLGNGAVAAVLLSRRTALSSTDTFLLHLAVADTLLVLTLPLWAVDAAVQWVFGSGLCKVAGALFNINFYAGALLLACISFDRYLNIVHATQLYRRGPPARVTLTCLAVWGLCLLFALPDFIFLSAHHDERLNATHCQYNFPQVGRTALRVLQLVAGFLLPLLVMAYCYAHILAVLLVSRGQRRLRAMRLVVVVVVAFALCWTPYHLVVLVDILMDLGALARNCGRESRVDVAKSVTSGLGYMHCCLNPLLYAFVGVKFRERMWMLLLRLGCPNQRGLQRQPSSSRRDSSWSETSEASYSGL

“CXCL10 (from UniProt P02778 22-98) (ligand)”: the chemokine concentration at maximum cell migration of CD8+ TSCM was found to be 100 ng/mL and the chemotactic index, in-vitro transwell migration of human T cells amounted to 2.

B1: CXCL11 (ligand, UniProt O14625 22-94, looked up)
chain: FPMFKRGRCLCIGPGVKAVKVADIEKASIMYPSNNCDKIEVIITLKENKGQRCLNPKSKQARLIIKKVERKNF
The molecule B1 came in with a chemokine concentration at maximum cell migration of CD8+ TSCM of 100 ng/mL; a chemotactic index, in-vitro transwell migration of human T cells of 2; a fold enrichment of CXCR3+ cells after 21 days stimulation with CMV epitopes and CXCL11 of 10000 fold.

B2: CXCL9 (ligand, UniProt Q07325 23-125, looked up)
chain: TPVVRKGRCSCISTNQGTIHLQSLKDLKQFAPSPSCEKIEIIATLKNGVQTCLNPDSADVKELIKKWEKQVSQKKKQKNGKKHQKKKVLKVRKSQRSRQKKTT
As to B2, the chemokine concentration at maximum cell migration of CD8+ TSCM came to 100 ng/mL and the chemotactic index, in-vitro transwell migration of human T cells was determined as 2.
